Consider six molecules from patent publication US20230212239A1, “INHIBITORS OF CBL AUTOINHIBITION AND RELATED METHODS” (THE HOSPITAL FOR SICK CHILDREN, priority 2020, published 2023).

The target in test [1] is T1, CBL TKBD-LHR-RING (2-436), unphosphorylated (Homo sapiens, UniProt P22681).
T1 construct: GST (N, cleaved yes); made in house; host or cells: E. coli BL-21
T1 sequence (P22681 2-436): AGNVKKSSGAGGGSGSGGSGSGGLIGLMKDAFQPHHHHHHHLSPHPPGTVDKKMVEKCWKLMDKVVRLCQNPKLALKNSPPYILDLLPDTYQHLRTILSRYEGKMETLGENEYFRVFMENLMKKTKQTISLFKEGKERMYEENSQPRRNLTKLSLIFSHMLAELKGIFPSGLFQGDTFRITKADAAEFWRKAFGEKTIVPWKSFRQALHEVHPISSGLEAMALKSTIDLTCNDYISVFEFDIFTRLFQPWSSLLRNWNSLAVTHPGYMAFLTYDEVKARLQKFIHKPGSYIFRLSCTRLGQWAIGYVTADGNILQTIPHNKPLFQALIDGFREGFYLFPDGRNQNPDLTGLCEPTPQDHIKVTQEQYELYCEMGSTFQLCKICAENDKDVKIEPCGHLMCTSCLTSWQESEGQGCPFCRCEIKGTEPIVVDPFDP
Kind of test: In vitro ubiquitination assay, anti-ubiquitin immunoblot. The class given is biochemical. The conditions noted are these: anti-Ub immunoblot and E3LITE (FIGS. 11A,B, 10B-D). From the text: Given that binding of SLAP2 and the LHR-RING would be mutually exclusive (FIG. 8C), we reasoned that binding of SLAP2 to CBL could displace the LHR-RING, thereby promoting the catalytically competent conformation. To test this hypothesis, an in vitro ubiquitination assay in which E3 ligase activity is detected by a smear at high molecular weight on an anti-ubiquitin (Ub) immunoblot was employed. […] To further compare and quantify CBL ubiquitin ligase activity, a chemiluminescence based assay which measures the total amount of polyubiquitylated products formed in an in vitro reaction was used. In this assay, production of polyubiquitylated proteins increased upon addition of SLAP2 or pSLAP2 to CBL, compared to CBL alone (FIG. 9C and FIG. 10A).
In vitro ubiquitination reactions were prepared with 20 pmol of CBL or pCBL and 60 pmol of hSLAP2 or phosphorylated hSLAP2 (pSLAP2) for both WT and mutants. Reagents were thawed and reactions prepared on ice. CBL and SLAP2 were mixed in PBS (with 5 mM βME, 5 mM caproic acid, 0.5 mM PMSF, and 0.5 mM Na3VO4) at rt for 5-10 min before addition of master mix (42 pmol E1 (UBE1, Boston Biochem or Ubiquitin-Proteasome Biotechnologies), 0.1 µmol E2 (UbcH5b/UBE2D2, Boston Biochem #E2-622), […], and 11.6 µmol ubiquitin (Boston Biochem #U-100H) in reaction buffer (0.2 M Tris pH 7.5, 10 mM MgCl2, 2 mM DTT). Reactions were incubated at 30° C. shaking at 500-700 rpm for 60-110 minutes and terminated by addition of SDS 2X loading buffer and boiling for 5-10 minutes. Equal volumes of each reaction were loaded on 12.5% SDS-PAGE gel, transferred to PVDF membrane, and immunoblotted for ubiquitin as per standard protocols (anti-ubiquitin antibody P4G7, BioLegend #838701, 1:1000; anti-mouse IgG HRP-linked antibody, Cell Signaling Technology #7076, 1:10000; Western Lightning Plus ECL, Perkin Elmer).
On the technique in general: In western blotting, separated proteins are transferred to a membrane and probed.

Test [2] relates to CBL TKBD. As to the kind of experiment: Co-purification of CBL TKBD with Trx-His-SLAP2/SLAP (Duet co-expression, Ni-NTA, SDS-PAGE). The conditions noted are these: low salt concentration (0.15 M NaCl). The test is classed as binding. From the text:
(§1) To validate the CBL/SLAP2 binding interface, a series of mutants in a Duet co-expression vector system was generated for co-purification trials. The SLAP2 sequence was preceded by thioredoxin (Trx) and His-tag fusion proteins to allow co-purification of CBL TKBD that was bound to Trx-His-SLAP2 during the initial affinity chromatography purification step. Surface residues deemed to be important to the CBL/SLAP2 interface, but not CBL function or folding, were mutated to disrupt CBL/SLAP2 binding (FIG. 5C and FIG. 6). In our structure, SLAP2 Gly240 locates close to CBL Met269 and Ala270, such that mutation to a bulky Arg residue (G240R) could cause sterical constraints. Similarly, SLAP2 Leu241 is situated in a hydrophobic cleft composed of CBL Ala223, Trp258, and Val263; mutation to Arg (L241R) was predicted to disturb this binding pocket. Mutation of CBL Ala223 to Arg (A223R) would likewise disrupt this pocket, with CBL/SLAP2 double mutant A223R/L241R predicted to drastically disturb binding through sterical constraints and charge repulsion. (For clarity, CBL mutations herein are indicated in italics, SLAP2 in regular font.) Similarly, single or double mutation of CBL Ser226 or SLAP2 Ser244, whose side chain hydroxyl groups are in close proximity to one another, to charged Glu residues (S226E and S244E) was anticipated to interfere with CBL/SLAP2 binding. Finally, given that SLAP2 binds CBL as an α-helix, mutation of Leu245, located in the center of this α-helix, to proline (L245P) was expected to interrupt the helical structure and thus prevent SLAP2 binding. […] However, double mutation of the CBL/SLAP2 interface (A223R/L241R and S226E/S244E; FIG. 5D, lower panel) was not tolerated, even at low salt concentration.
(§2) For co-purification of CBL and SLAP2/SLAP, Duet-His-hSLAP2-CBL 29-261 Δ198-229 and 29-254 Δ198-229, Duet-His-Δlinker-hSLAP2-CBL WT and point mutants, and Duet-His-mSLAP-CBL WT and point mutants were overexpressed in E. coli BL-21 as above or TKB1 competent cells (Stratagene) as per manufacturer’s instructions, and cells harvested as above (except 100 mL of LB, overnight at 16-18° C., and 0.35-0.5 mM IPTG induction). Cell pellets were resuspended in either high or low salt (as for high salt except 25 mM HEPEs pH 7.5, 150 mM NaCl) lysis buffer and purified as above on Ni-NTA agarose (Qiagen) with wash buffer (25 mM HEPEs pH 7.5, 150 mM NaCl, 2% glycerol, 20 mM imidazole, 10 mM βME). Bead slurry was mixed with SDS 2X loading buffer (125 mM Tris pH 6.8, 4% SDS, 20% glycerol, 0.715 M βME, bromophenol blue), boiled, and analyzed by 10 or 12.5% SDS-PAGE, stained with Coomassie blue.

The target of test [3] is T2, CBL TKBD (Homo sapiens, UniProt P22681).
T2 construct: with CBL (47-357) cloned in frame into MCS2 of the same pETDuet-1 vector; made in house
T2 sequence (P22681 47-357): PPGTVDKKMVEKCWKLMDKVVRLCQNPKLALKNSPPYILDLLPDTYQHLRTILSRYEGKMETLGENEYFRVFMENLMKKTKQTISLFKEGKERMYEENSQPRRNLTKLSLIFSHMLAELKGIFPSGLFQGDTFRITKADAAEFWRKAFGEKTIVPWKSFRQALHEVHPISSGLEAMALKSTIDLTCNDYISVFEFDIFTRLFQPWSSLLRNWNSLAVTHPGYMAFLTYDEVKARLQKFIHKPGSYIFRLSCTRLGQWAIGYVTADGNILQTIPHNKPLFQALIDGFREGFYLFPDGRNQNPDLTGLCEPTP
The description is as above. The test is classed as binding. The conditions noted are these: conditions where SLAP2 was tyrosine phosphorylated (TKB1), low salt.
Excerpt: as §1, §2

B1: SLAP2 R242A: SLAP2 mutant in the SLAP2/SLAP2 interface (protein)
chain: EAERSKATAVALGSFPAGGPAELSLRLGEPLTIVSEDGDWWTVLSEVSGREYNIPSVHVAKVSHGWLYEGLSREKAEELLLLPGNPGGAFLIRESQTRRGSYSLSVRLSRPASWDRIRHYRIHCLDNGWLYISPRLTFPSLQALVDHYSELADDICCLLKEPCVLQRAGPLPGKDIPLPVTVQRTPLNWKELDSSLLFSEAATGEESLLSEGLAESLSFYISLNDEAVSLDDA
modifications: left off: large carriers; small tags and cut ends
notes: SLAP2 mutant in the SLAP2/SLAP2 interface
In the case of B1, the “stimulation/activation of CBL ubiquitination activity by SLAP2 mutants versus WT” value in test [1] is “did not alter SLAP2 or pSLAP2 activation of CBL”. In addition, the “CBL TKBD co-purification” value in the test on CBL TKBD [2] is on record as “did not significantly impact co-purification of CBL”.

B2: SLAP2 I249W: SLAP2 mutant in the SLAP2/SLAP2 interface (protein)
chain: EAERSKATAVALGSFPAGGPAELSLRLGEPLTIVSEDGDWWTVLSEVSGREYNIPSVHVAKVSHGWLYEGLSREKAEELLLLPGNPGGAFLIRESQTRRGSYSLSVRLSRPASWDRIRHYRIHCLDNGWLYISPRLTFPSLQALVDHYSELADDICCLLKEPCVLQRAGPLPGKDIPLPVTVQRTPLNWKELDSSLLFSEAATGEESLLSEGLRESLSFYWSLNDEAVSLDDA
modifications: left off: large carriers; small tags and cut ends
notes: as for B1
As to B2, the “stimulation/activation of CBL ubiquitination activity by SLAP2 mutants versus WT” value in test [1] is reported as “did not alter SLAP2 or pSLAP2 activation of CBL”. Further, in the test with CBL TKBD [2], the “CBL TKBD co-purification” value is “did not significantly impact co-purification of CBL”.

B3: SLAP2 Y248F: SLAP2 Tyr248 to Phe mutant, expressed under phosphorylating conditions (protein)
chain: EAERSKATAVALGSFPAGGPAELSLRLGEPLTIVSEDGDWWTVLSEVSGREYNIPSVHVAKVSHGWLYEGLSREKAEELLLLPGNPGGAFLIRESQTRRGSYSLSVRLSRPASWDRIRHYRIHCLDNGWLYISPRLTFPSLQALVDHYSELADDICCLLKEPCVLQRAGPLPGKDIPLPVTVQRTPLNWKELDSSLLFSEAATGEESLLSEGLRESLSFFISLNDEAVSLDDA
modifications: left off: large carriers; small tags and cut ends
notes: SLAP2 Tyr248 to Phe mutant, expressed under phosphorylating conditions
As for B3, in the test with CBL TKBD [3], the “CBL TKBD co-purification” value is reported as “co-purified”.

B4: SLAP2 S246/250E: SLAP2 double mutant in the SLAP2/SLAP2 interface (protein)
chain: EAERSKATAVALGSFPAGGPAELSLRLGEPLTIVSEDGDWWTVLSEVSGREYNIPSVHVAKVSHGWLYEGLSREKAEELLLLPGNPGGAFLIRESQTRRGSYSLSVRLSRPASWDRIRHYRIHCLDNGWLYISPRLTFPSLQALVDHYSELADDICCLLKEPCVLQRAGPLPGKDIPLPVTVQRTPLNWKELDSSLLFSEAATGEESLLSEGLRESLEFYIELNDEAVSLDDA
modifications: left off: large carriers; small tags and cut ends
notes: SLAP2 double mutant in the SLAP2/SLAP2 interface
Regarding B4, the “stimulation/activation of CBL ubiquitination activity by SLAP2 mutants versus WT” value in test [1] is recorded as “did not alter SLAP2 or pSLAP2 activation of CBL”. In addition, the “CBL TKBD co-purification” value in the test on CBL TKBD [2] is on record as “did not significantly impact co-purification of CBL”.

B5: Phosphorylated SLAP2 L241R: phosphorylated SLAP2 point mutant L241R at CBL/SLAP2 interface (protein, UniProt Q9H6Q3 2-261, looked up, variant L241R)
Src-like-adapter 2: GSLPSRRKSLPSPSLSSSVQGQGPVTMEAERSKATAVALGSFPAGGPAELSLRLGEPLTIVSEDGDWWTVLSEVSGREYNIPSVHVAKVSHGWLYEGLSREKAEELLLLPGNPGGAFLIRESQTRRGSYSLSVRLSRPASWDRIRHYRIHCLDNGWLYISPRLTFPSLQALVDHYSELADDICCLLKEPCVLQRAGPLPGKDIPLPVTVQRTPLNWKELDSSLLFSEAATGEESLLSEGRRESLSFYISLNDEAVSLDDA
modifications: tyrosine phosphorylated
notes: phosphorylated SLAP2 point mutant L241R at CBL/SLAP2 interface
Turning to B5, the “stimulation/activation of CBL ubiquitination activity by SLAP2 mutants versus WT” value in test [1] was “reduced stimulation of CBL ubiquitination activity compared to pSLAP2 WT”.

B6: Phosphorylated SLAP2 S244E: phosphorylated SLAP2 point mutant S244E at CBL/SLAP2 interface (protein, UniProt Q9H6Q3 2-261, looked up, variant S244E)
Src-like-adapter 2: GSLPSRRKSLPSPSLSSSVQGQGPVTMEAERSKATAVALGSFPAGGPAELSLRLGEPLTIVSEDGDWWTVLSEVSGREYNIPSVHVAKVSHGWLYEGLSREKAEELLLLPGNPGGAFLIRESQTRRGSYSLSVRLSRPASWDRIRHYRIHCLDNGWLYISPRLTFPSLQALVDHYSELADDICCLLKEPCVLQRAGPLPGKDIPLPVTVQRTPLNWKELDSSLLFSEAATGEESLLSEGLREELSFYISLNDEAVSLDDA
modifications: phosphorylated
notes: phosphorylated SLAP2 point mutant S244E at CBL/SLAP2 interface
On to B6, for which, in test [1], the “stimulation/activation of CBL ubiquitination activity by SLAP2 mutants versus WT” value is recorded as “less stimulation of CBL ubiquitination activity than pSLAP2 WT”.
